In the nanobody polyreactivity screen of Harvey et al. (2022):

Assay: yeast display, Sf9 membrane polyspecificity reagent, FACS + sequencing; frameworks hold sequencing errors
Method in brief: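 Galactose induction of a Saccharomyces cerevisiae BJ5465 synthetic nanobody display library ran 36–48 hours. The cells were then stained for 1 hour at 4 °C with 10% biotinylated, detergent-solubilized Sf9 membrane reagent, pulled down on streptavidin microbeads and FACS-sorted into low and high (top ~1%) gates on expression and reagent-binding fluorescence. Labels for polyreactivity follow the gate of origin.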

Sequence: QVQRVESGGGLVQAGGSLRLSCAASGSNFRVYVMGWYRQAPGKERELVARIRYRSGRTNYADSVKGRFTISRDNAKNTVYLQMNSLKPEDTAVYYCAARTPAYARTYGYWGQGTQVTVSS
- polyreactivity (PSR sort gate): high polyreactivity

Sequence: QVQLVESGGGLVQAGGSLRLSCAASGRTFASYAMGWYRQAPGKERELVATIRRSGTSTYYADSVKGRFTISRDNAKNTVYLQMNSLKPEDTAVYYCAALRSLLYRTYGYWGQGTQVTVSS
- polyreactivity (PSR sort gate): low polyreactivity

Sequence: QVQLVESGGGLVQAGGSLRLSCAASGRIFYGYAMGWYIHAPGKERELVAAITYSGGITYYADSVKGRFTISRDNAKNTVYLQMNSLKPEDTAVYYCATSKSSVTGPDLDYWGQGTQVTVSS
- polyreactivity (PSR sort gate): high polyreactivity

Sequence: QVQLVESGGGLVQAGGSLRLSCAASGRIFYQNAMGWYRQAPGKERELVAGITRGGSTYYADSVKGRFTISRDNAKNTVYLQMNSLKPEETAVYYCAVAFWRTKWYDYWGQGTQVTVSS
- polyreactivity (PSR sort gate): low polyreactivity

Sequence: QVQLVESGGGLVQAGGSLRLICAASGITFTGYAMGWYTQAPGKERELVAVISETGGSTYADSVKGRFTISRDNAKNTVYLQMNSLKPEDTAVYYCAARLWWPYSTAWAKMDYWGQGTQVTVSS
- polyreactivity (PSR sort gate): low polyreactivity

Sequence: QVQLVESGGGLVQAGCSLRLSCAASGITFRRYTMGWYRPAPGKERELVATISLSDGNTYYADSVKGRFTISRDNAKNTVYLQMNSLKPEDTAVYYCTADVRYGRDHWGQATQVTVSS
- polyreactivity (PSR sort gate): low polyreactivity

Sequence: QVQLVESGGGLVQAGGSLRLSCAASGFTFVAYAMGWYRPAPGKERELVAAIRRTDTSTYYADSVKGRFTISRDNAKNTVYLQMNSLKPEDTAVYYCAADYWRRTYLGFDYWGQGTQVTVSS
- polyreactivity (PSR sort gate): low polyreactivity

Sequence: QVQLVESGGGLVQAGGSLRLSCAASGFILDYYAMGWYRQAPGKERELVAANSYSGGSTYYADSVKGRFTISRDNAKNTVYLQMTSLKAEDTGVYYGNAGVLVLLYAYLPSELEYWGQGTQVTVSS
- polyreactivity (PSR sort gate): low polyreactivity

Sequence: QDQLVESGGGLVQAGGSLRLSCAASGNTFYVNVMGWYRQPPGKVREFVAAISTRGVSTSYADSVKGRFTISRDIAMNTVYLQMNSLKPEDTAVYYCAASFRRPEPKGTTYGYWGQGTQVTVSS
- polyreactivity (PSR sort gate): high polyreactivity

Sequence: QVQLVESGGGLVQAGGSLRLSCAASGSIFLHNAMGWYRQAPGKDRELVAAISGTGGRTYYADSVKGRFTISRDNAKNTVYLQMNSLKPEDTAVYYCAKAARTRGGYGYWGQGTQVTVSS
- polyreactivity (PSR sort gate): high polyreactivity

Sequence: QVQIVESGRGLVQAGGSLRLSCASSGFTFVSYAMGWYRQAPGKERELDASISKRGGTTYYADSVKGRFTISRDNAKNTVYLQMNSLKPEDTAVYYCYARDTRRYVTYDSGYDYWGQGTQVTVSS
- polyreactivity (PSR sort gate): high polyreactivity

Sequence: QVQLVDSGGGLVQAGGSLRLSFAASGNIIYQNAMGWDRQAPGKERELVAAISSGGSTNYADSVKGRFTISRDNAKITVYLQMNSLKPEDTAVYYCAAEHWTESVWDDSWGQGTQVTVSS
- polyreactivity (PSR sort gate): low polyreactivity

Sequence: QVQLVESGGGLVQAGGSLRLSCAASGSILWYYAMGWDRQAPGKERELVATITSGGSTYYADSVKGRFTISRDNAKNSVYLQMNSLKPEDTAVYYCNADLAVDEYDYWGQGTQVTVSS
- polyreactivity (PSR sort gate): low polyreactivity

Sequence: QVQLVESGGGLVQAGGSLRLSCPASASNYAAYTMAWYRQAPGKERECVAAITSGGSTNYADSVKGRFTISRDNAKNTVYLQMNSLKPEDTAVYYCAAEDLNYYFWRSLWFGIYDDWGQGTQVTVSS
- polyreactivity (PSR sort gate): low polyreactivity

Sequence: QVQLVESGGGLVQAGGSLRLSCAASGFIFGYYAMGWYRQAPGKERELVAAISYSGGSTYYADSVKGRFTISRDNAKNTVYLQMNSLKPEDTAVYYCAKYGQSNYDWGQGTQVTVSS
- polyreactivity (PSR sort gate): high polyreactivity

Sequence: QVQLQESGGGLVQAGGSLRLSCAASGYISYFVGMAWYRQAPGKEREFVASIADGSNTYYADSVKGRFTISRDNAKNTVYLQRNSLKPEDTAVFYCAVEDSWTYRFDYWGQGTLVTVSS
- polyreactivity (PSR sort gate): high polyreactivity

Sequence: QVQLVESGGGLVQAGGSLRLSCAASGRTFYTNAMGWYRQAPGKERELVAAISRGGGRTYYADSVKGRFTISRDNAKNTVYLQMNSLKPEDTAVYYCAASPYQGQGREYYYWGQGTQVTVSS
- polyreactivity (PSR sort gate): high polyreactivity

Sequence: QVQLVESGGGLVQAGGSLRLSCAASGRTFIQYAMGWYRQAPGKERELVAAISLSGGSTYYADSVKGRFTISRDNAKNTVYLQMNSLKPEDTAVYYCNAGYYWGQGTQVTVSS
- polyreactivity (PSR sort gate): high polyreactivity

Sequence: QVQLVESGGGLVQAGGSLRLSCAASGSTFPYYAMGWYRQAPGKERELVAAISRGDSTNYADSVKGRFTISRDNAKNTVYLQMNSLKPEDTAVYYCAARLQYRRTSVKYYYWGQGTQVTVSS
- polyreactivity (PSR sort gate): high polyreactivity

Sequence: QVQLVESGGGLVQAGGSLRLICAASGRTFRIYAMGWYRQEPGKDRQLVAAIRWSGGTTYYADSVKGRFTISRDYAKNTVYLQMNSLKPDDTSVYYCAADSTNRFDYWGQGTQVTVSS
- polyreactivity (PSR sort gate): high polyreactivity

Sequence: QVQLVESGGGLVQAGGSLRLSCAASGSIFFGNAMGWYRQAPGKERELVAAIDGTGASTYYADSVKGRFTISRDNAKNTVYLQMNSLKPEDTAVYYCNKALTSKDYPVRTVERDYWGQGTKVTVSS
- polyreactivity (PSR sort gate): low polyreactivity

Sequence: QVQLVESGGGLVQAGGSIRLSCDHSGRNLYRNSMGWYRQAPEKERELVARITSSGASTYYADSVKGRFTISRDNAKNTVTIQMNSLKQEYTAVYYCAAQYLSRRYGPYYTYNYRGQGTQVTVSS
- polyreactivity (PSR sort gate): high polyreactivity

Sequence: QVQLVESGGGLVQAGGTLRLICAATGRTFDFNAMGWYRQAPGKERELVAAITESGGSTYYADSVKGRFTISRDNAKNTVYLQMNSLKPEDTAVYYCAVAGNYYRDYPEVSYFSIYNYWGQGTQVTVSS
- polyreactivity (PSR sort gate): low polyreactivity

Sequence: QVQLVESGGGLVQAGGSLRLSCAASGFTFNDYAMGWYRQAPGKERELVAAIDWSGGRTYYADSVKGRFTISRDNAKNTVYLQMNSLKPDDTAVYYCAAVLYSRLYWYRLDYWGQGTQVTVSS
- polyreactivity (PSR sort gate): low polyreactivity

Sequence: QVQLVDSGGGLVQAGGSLRLSCAASGSTFSHYTMGWYRQAPGKERELVAAINYGGASTYYADSVKGRFTISRDNAKNTVYLQMNSLKPEDTAVYYCAAANRPSEQDNYWGQGTQVTVSS
- polyreactivity (PSR sort gate): low polyreactivity

Sequence: QVQLVESGGVLVQAGGSIRLTCAASGFTFSHYAMGWYRQAPGKERELVAAIRYSRASTYYADSVKGRFTISRYNAKNTVYLQMISVKPEDTSVYYCARPWWWAHHYDYDYWGQGSQVTVSS
- polyreactivity (PSR sort gate): low polyreactivity

Sequence: QVQLVESGGGIVQAGGSLRLSCAASGSTFVNYTMGWYRQAPGKERELVATITWSGDSTYYADSVKGRFTISRDNAKNTVYLQMNSVKPEDTAVYYCAGAPLETYYYWGQGTQVTVSS
- polyreactivity (PSR sort gate): low polyreactivity

Sequence: QVQLVESGGGLVQAGGSLRLSCAASGFIFGLYAIGWYRQAPGKERELVAAISRSGGSTYYADSVKGRFTISRDNAKNTVYLQMNSLKPEDTAVYYCNARYSWPRATWYDYWGQGTQVTVSS
- polyreactivity (PSR sort gate): high polyreactivity

Sequence: QVQLVESGGGLVQAGGSLRLSCAASGSIFGGYPMGWYRQAPGKERELVAAITYSAGNTYYADSVKGRFTISRDNAKNTFYVQMNSLKPEDTAVYYCNAVTKHRAITNMDYWGQGTQVTVSS
- polyreactivity (PSR sort gate): high polyreactivity

Sequence: QVQLVESGGGLDQAGGSLRLSCAASGFIFVRNAMGWYRQAPGKERELVAAITGRGGRTYYADSVKGRFTISRDNAKNTVYLQMNSLKPEDTAVYYCAKDSPDDHFGYWGQGTQVTVSS
- polyreactivity (PSR sort gate): high polyreactivity

Sequence: QVQLVESGGGLVQAGGSLRLSCAASGSTFVVNDMGWYRQAPGKERELVAAIRSGTSTNYADSVKGRFTISRDNAKNTVYLQMNSLKPEDTAVYYCNAAITQFAWNRYTLIYDYWGQGTQVTVSS
- polyreactivity (PSR sort gate): low polyreactivity

Sequence: QVQLVESGGGLVQAGGSLRLSCAAYGSILLRYAMGWYRQAPGKERELVAAIRTIGASTYYADSVKGRFTISRDNAKNTVYLQMNSLKPEDTAVYYCNGYLAEVLQLGKCRLYDYWGQSTQVTVSS
- polyreactivity (PSR sort gate): low polyreactivity

Sequence: QVQLVQSGGGLVQAGGSLRLSCAASGSIFDYNTMGWYRQAPGKERELVATISWSGDSTYYADSVKGRFTISRDNAKNTVYLQMNSLKPEDTAVYYCNADDPPGAPYYDSFDYRGDYWGQGTQVTVSS
- polyreactivity (PSR sort gate): low polyreactivity

Sequence: QVQLVESGGGLVQAGGSLRLSCAASGSIFPDNAMGRYRQAAGKVRELVAAIDKGTGSTNYADSVKGRFTISRDNAKNSVYLQINSVKPEDTAGYYCDKGWLSPRGGAWYDDYWGQGTEVTVSS
- polyreactivity (PSR sort gate): low polyreactivity

Sequence: QVQLVESGGGLFQAGGSLRLSCAASGFTFYRNAMGWYRQAPGQERELVAAITRGGSTTYADSVKGRFTISRDNAKNTVYLQMNSLKPEDTAVYYCAKGARADVPGYYKYYYWGQGTQVTVSS
- polyreactivity (PSR sort gate): high polyreactivity

Sequence: QVQLVESGGGLVQAGGSLRLSCAASGFIFGIYDMGWYRQAPGKERELVAAITYSGSSTYYADSVKGRFTISRDNAKNTVYLQMNSLKQEDTAVYYCNKTPWDWDYWDPEYYYWGQGTQVTVSS
- polyreactivity (PSR sort gate): high polyreactivity

Sequence: QVQLVESVGGLVQAGGSLRLSCAASGGTFSFNAMGWYRQAPGKERELVAAITQTGDRTYYADSVKGRFTISRDNAKNTVYLQMNSLKPEDTAVYYCAADDIYYQGIYRGSEFDYRGQGTQVTVSS
- polyreactivity (PSR sort gate): low polyreactivity

Sequence: QVQLVESGGGLVQAGGSLRLSCAASGFILEPNAMGWYRQAPGKERELVATISFSGGGTYYADSVKGRFTISRDNAKNNVYLQMNSLKPEDTAVYYCAAQGRDSDYVDFDYWGQGTQVTVSS
- polyreactivity (PSR sort gate): high polyreactivity

Sequence: QVQLVESGGGLVQAGGSLRLSCAASGIIFSVYAMGWYRQAPGTERELVAAISGSGGSTYYADSVKGRFTISRDNAKNTVYLQMNSLKPEDTAVYYCAARKKWSIRSDYWGQGTQVTVSS
- polyreactivity (PSR sort gate): high polyreactivity

Sequence: QVQLVESGGCLVQAGGSHRLSCAASGSIFKYYTMGWYRQAPGKERELDAAITTRGTSTNYADSVKGRFTISRDNAKHTVYFQMNSLKPEDTAVYYCAARLSSLISMNYWGQGTQVTVSS
- polyreactivity (PSR sort gate): high polyreactivity

Sequence: QVQLVESGGGLVQAGGSLLLSCAPSGITFVWYAMVWYRQAPGKERELVAAISRGGSTYYADSVKGRFTISRDNAKNTVYLQMNSLKPVDTAVYYCAARAPYIQQSVHISPRYYYSGQGTQVTVSS
- polyreactivity (PSR sort gate): high polyreactivity

Sequence: QVQLVESGGGLVQAGGSLRLSCAASGFTLHSYAMGWYRQAPGKERELVAAITTGGSTYYADSVKGRFTISRDNAKNTVYLQMNSLKPEDTAVYYCAADVPGNYRKYRYGRASSHDYWGQGTQVTVSS
- polyreactivity (PSR sort gate): low polyreactivity

Sequence: QVQLVESGGGFVQAGGSLRLSCAASGFTFWVYAMGWYRQAPGKERELVAGITWSGGSTSYADSVKGRFTISRDNAKNTVYLQMNSLKPEDTAVYYCAADDFGYPDDMNYWGQGTQVTVSS
- polyreactivity (PSR sort gate): low polyreactivity
